Measurements as given in US20210032331A1 (PHANES THERAPEUTICS, published 2021).
Blank lines part the entries; values can stand above or below the binder they belong to.

Experiments:
B5/IgG4 [1] = target: T1, B5/IgG4; test: ELISA peptide competition: peptide preincubated with B5/IgG4, competitor hLAG3-mFc; capture on anti-human IgG, anti-mouse IgG-HRP
T1 construct: Chimeric: mouse VH and VL with human IgG4 heavy chain and kappa light chain constant regions; also called B5 (human IgG4 heavy chain and kappa light chain chimeric)
Procedure: (§1) FIGS. 5A-5D show the effect of competition peptides on LAG-3 binding to anti-LAG-3 mAbs. […] B5/IgG4 was preincubated with a competition peptide for 30 minutes. Then human LAG-3 extracellular domain (ECD) fused to mouse Fc (hLAG3-mFc) was added (the final peptide concentration was 600-fold that of hLAG3-mFc) and the mixture was incubated for 60 minutes before being added to an ELISA plate coated with anti-human IgG. The incubation was carried out at 4° C. overnight. After washing, the hLAG3-mFc bound to the immobilized B5/IgG4 on the ELISA plate was detected by adding anti-mouse IgG conjugated to horseradish peroxidase (HRP) and incubating for 60 minutes. Then, after washing, the ELISA was developed using One-step Detection Solution and measured as the absorbance at 450 nm.
(§2) Anti-human IgG in carbonate coating buffer was coated on an ELISA plate at 4° C. (50 μL/well at 1 μg/mL) overnight. In each well of a separate plate, a chimeric version of a given anti-LAG-3 mAb (50 μL/well at 1.4 nM) and a competition peptide (50 μL/well at various concentrations as indicated in the figures) were mixed and incubated for 30 minutes at room temperature. Then human LAG-3 extracellular domain (ECD) fused to mouse Fc (hLAG3-mFc) was added to each well (50 μL/well at 2 nM) and the final mixture was incubated at room temperature for 60 minutes before added to the ELISA plate (50 μL/well) for another 60-minute incubation. The final incubation after adding the mixture to the ELISA plate was also performed at 4° C. overnight in some assays. The plate was washed and the binding of hLAG3-mFc to the immobilized anti-LAG-3 mAb was detected by adding anti-mouse IgG conjugated to horseradish peroxidase ([…]) (ThermoFisher Scientific, Cat#: A16084; Waltham, Mass.) and incubating for 60 minutes.

[2] = target: T2, full-length human LAG-3 on stably transfected CHO-S cells (human, UniProt P18627 23-525); test: FACS, CHO-S cells stably transfected with full-length human LAG-3, PE anti-mouse IgG
T2 construct: also called hLAG3
T2 sequence: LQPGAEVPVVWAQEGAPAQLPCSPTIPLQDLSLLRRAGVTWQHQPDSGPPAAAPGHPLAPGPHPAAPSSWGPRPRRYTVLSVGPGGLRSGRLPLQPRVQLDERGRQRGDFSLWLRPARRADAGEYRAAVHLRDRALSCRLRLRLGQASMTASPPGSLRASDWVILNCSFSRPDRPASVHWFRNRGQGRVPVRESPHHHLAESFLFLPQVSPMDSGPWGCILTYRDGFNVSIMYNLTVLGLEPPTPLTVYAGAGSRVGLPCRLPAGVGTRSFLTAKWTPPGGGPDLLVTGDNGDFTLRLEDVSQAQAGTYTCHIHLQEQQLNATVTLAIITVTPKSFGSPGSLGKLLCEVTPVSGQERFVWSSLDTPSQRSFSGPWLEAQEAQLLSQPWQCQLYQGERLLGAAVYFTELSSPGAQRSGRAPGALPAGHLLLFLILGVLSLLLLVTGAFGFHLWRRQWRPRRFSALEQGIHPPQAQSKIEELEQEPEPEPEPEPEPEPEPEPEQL
Procedure: CHO-S cells stably transfected with full-length human LAG-3 were transferred to a 96-well plate. Around 200,000 cells were incubated with either purified chimeric anti-LAG-3 mAbs (variable regions of mouse mAbs fused to the constant regions of human IgG1 heavy chain and kappa light chain, respectively) or purified mouse anti-LAG-3 mAbs from hybridoma supernatants at various concentrations for 15 minutes at 4° C. Cells were then centrifuged at 1,000 rpm for 5 minutes and washed with FACS buffer (PBS supplemented with 5% BSA) three times. For the cells treated with the chimeric antibodies, the cells were then incubated with PE-conjugated goat anti-human IgG polyclonal antibodies and incubated on ice for another 15 minutes; for the cells treated with mouse mAbs, the cells were incubated with PE-conjugated goat anti-mouse IgG polyclonal antibodies and incubated on ice for another 15 minutes. Cells were then washed with FACS buffer three times and then resuspended in FACS buffer containing 0.1 μg/ml PI (propidium iodide) for live/dead cell gating. Cells were then run through the FACS Caliber instrument and the data were analyzed by the Flowjo software. Results of the FACS binding analysis of the mouse anti-LAG-3 mAbs (B1, B2, B3, B4, B5, B6, B7, B8, B9, B10, B11, B12, and B13) are provided in FIGS. 1A-1B.

human LAG-3(ECD)-huFc = target: T3, human LAG-3(ECD)-huFc (human, UniProt P18627 23-450); test: SPR (Biacore): mAb from hybridoma supernatant captured on anti-mouse IgG CM5 chip, human LAG-3(ECD)-huFc 50-400 nM injected
T3 construct: also called Fc-tagged human LAG-3(ECD)-huFc; not shown: human Fc (huFc) at the C-terminus
T3 sequence: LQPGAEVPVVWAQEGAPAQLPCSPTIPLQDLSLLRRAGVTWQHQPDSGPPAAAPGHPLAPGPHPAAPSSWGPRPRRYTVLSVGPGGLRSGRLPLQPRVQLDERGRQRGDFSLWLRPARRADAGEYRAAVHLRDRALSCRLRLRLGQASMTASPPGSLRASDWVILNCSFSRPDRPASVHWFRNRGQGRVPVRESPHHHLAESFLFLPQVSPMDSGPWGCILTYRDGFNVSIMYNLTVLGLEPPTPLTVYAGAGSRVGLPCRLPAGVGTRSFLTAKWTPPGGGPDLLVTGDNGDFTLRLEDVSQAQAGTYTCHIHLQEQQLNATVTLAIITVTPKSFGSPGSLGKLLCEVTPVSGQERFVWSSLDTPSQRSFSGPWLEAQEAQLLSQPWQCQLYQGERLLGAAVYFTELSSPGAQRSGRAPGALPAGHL
Procedure: Anti-mouse IgG antibodies were immobilized via amine coupling on CM5 chip surface. Anti-LAG-3 mAbs in hybridoma supernatants were captured on the chip surface and a series of concentrations (50-400 nM) of human LAG-3(ECD)-huFc protein were injected and passed through the captured surface. The on and off rates for antibody-antigen binding were measured, curve fitted and calculated.

B5/IgG4 [3] = target: T1, B5/IgG4; test: ELISA peptide competition: peptide preincubated with B5/IgG4, competitor hLAG3-mFc; peptide at 600-fold hLAG3-mFc; capture on anti-human IgG, anti-mouse IgG-HRP
Procedure: as §1, §2

[4] = target: T4, BG29 (human IgG4 heavy chain and kappa light chain chimeric); test: ELISA peptide competition: peptide preincubated with chimeric IgG4 BG29, competitor hLAG3-mFc; capture on anti-human IgG, anti-mouse IgG-HRP
T4 construct: Chimeric: mouse VH and VL with human IgG4 heavy chain and kappa light chain constant regions; also called chimeric BG29
Procedure: as §1, §2

[5] = target: T4, BG29 (human IgG4 heavy chain and kappa …); test: ELISA peptide competition: peptide preincubated with chimeric IgG4 BG29, competitor hLAG3-mFc; peptide at 200-fold hLAG3-mFc; capture on anti-human IgG, anti-mouse IgG-HRP
Procedure: as §1, §2

[6] = target: T5, B12 (human IgG1 heavy chain and kappa light chain chimeric); test: ELISA peptide competition: peptide preincubated with chimeric IgG1 B12, competitor hLAG3-mFc; capture on anti-human IgG, anti-mouse IgG-HRP
T5 construct: Chimeric: mouse VH and VL with human IgG1 heavy chain and kappa light chain constant regions
Procedure: as §1, §2

human LAG-3(ECD)-mFc = target: T6, human LAG-3(ECD)-mFc (human, UniProt P18627 23-450); test: FACS blocking assay: mAb preincubated with LAG-3(ECD)-mFc (1 µg/mL), blocked ligand MHC class II on Daudi cells, PE anti-mouse Fc
T6 construct: also called hLAG3-mFc; human LAG-3 extracellular domain (ECD) fused to mouse Fc; not shown: mouse Fc
T6 sequence: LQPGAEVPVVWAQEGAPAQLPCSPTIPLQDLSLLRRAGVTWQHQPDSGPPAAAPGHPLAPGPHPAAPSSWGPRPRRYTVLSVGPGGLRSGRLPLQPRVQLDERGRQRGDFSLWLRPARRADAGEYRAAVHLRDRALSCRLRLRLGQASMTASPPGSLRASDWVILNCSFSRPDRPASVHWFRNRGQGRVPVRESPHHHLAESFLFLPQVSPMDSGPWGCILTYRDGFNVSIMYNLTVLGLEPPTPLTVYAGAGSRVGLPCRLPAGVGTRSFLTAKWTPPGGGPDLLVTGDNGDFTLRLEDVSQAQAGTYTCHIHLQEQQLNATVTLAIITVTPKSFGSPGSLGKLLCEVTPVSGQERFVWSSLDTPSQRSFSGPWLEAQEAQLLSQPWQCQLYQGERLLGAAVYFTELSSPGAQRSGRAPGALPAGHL
Procedure: FIGS. 4A-4D show inhibition of human LAG-3 binding to MHC class II molecules by select anti-LAG-3 mAbs. An in vitro binding assay was performed using recombinant LAG-3(ECD)-mFc and Daudi cells which express human MHC class II molecules. […] The binding of LAG-3(ECD)-mFc to Daudi cells in the presence of anti-LAG-3 mAbs or a control mAb was analyzed by FACS.
Human Daudi cells were cultured in RPMI+10% FBS. Human LAG-3(ECD)-mFc protein (human LAG-3 ECD fused to mouse Fc) at 1 μg/ml final concentration was incubated with purified mouse, humanized, or chimeric anti-LAG-3 mAbs at various concentrations for 15 minutes at 4° C. The mixture was then added to 100,000 human Daudi cells in a 96-well round bottom plate, mixed and incubated for 15 minutes on ice. Cells were then centrifuged at 1,000 rpm for 5 minutes and washed with FACS buffer (PBS supplemented with 5% BSA) three times. The cells were then incubated with PE-conjugated goat anti-mouse Fc polyclonal antibodies on ice for 15 minutes, washed with FACS buffer three times and then resuspended in FACS buffer containing 0.1 μg/ml PI (propidine iodine) for live/dead cell gating. Cells were then run through the FACS Caliber instrument and the data were analyzed by the Flowjo software. Results of the inhibition of LAG-3 binding to Daudi cells by chimeric mAbs B1C, B3C, B4C, BSC, B9C, and B11C are shown in FIG. 4B.

B2: BG27 (antibody, V domains shown)
VH: QAYLQQSGADLVRPGASVKMSCKASGYTFTSYDMHWVKQTPRQGLEWIGAIYPGNGDASYNQKFKGKATLTVDKASSTAFMQLSSLTSEDSAVYFCARGDYGNYVWFAYWGQGTLVTVSA
VL: DVVMTQTPLSLPVSLGDQASISCRSSQTIVHSNRYTYLEWYLQKPGQSLKLLIYGVSNRFSGVPDRFSGSGSGTDFTLKISRVEAEDMGVYYCFQGTHVPPTFGAGTKLELK
notes: Mouse mAb from hybridoma; also called mouse anti-LAG-3 mAb BG27
- EC50 (read off the curve) [2]: ~0.3 µg/mL

B3: B9 (antibody, V domains shown)
VH: EVQLRQSGPVLVKPGASVKMSCKASGYTFTGYYMNWVKQSHGKSLEWLAVINPYNGDTAYNRKFKGRATLTVDKSSSTAYMELNRLTSEDSAVYYCVRDDGYHVRYFDVWGTGTTVTVSS
VL: DIQMTQSPSSLSASLGERVSLTCRASQDISDSLCWLQQKPDGTIKRLIYSTSTLDSGVPKRFSGSRSGSDYSLTISSLESEDFADYYCLQYASSPPTFGGGTKLEIK
notes: Mouse mAb from hybridoma; also called mouse anti-LAG-3 mAb B9
- EC50 (read off the curve) [2]: ~0.2 µg/mL
- Kd (human LAG-3(ECD)-huFc): 1.53 nM

B4: 1-12 (peptide)
peptide: GPPAAAPGHPLA
notes: also called peptide 1-12
- binding result (B5/IgG4 [3]): binds
- binding result [4]: no binding (tested: 200-fold hLAG3-mFc)

B5: BG29 (antibody, V domains shown)
VH: QIQLQQSGPEVVKPGASVRISCKASGYTFSDYHINWVKQKPGQGLEWIGWIYPGRGDPEYNEKFKGKATLTVDRSASTAYMQLSSLTSEDTSVYFCEIYYGNYIDYWGQGTTLTVSS
VL: DIVMTQAAPSVPVTPGESVSISCRSSKSLLHSDGKTYLYWFLQRPGQSPQRLIYYMSNLASGVPDRFSGRGSGTDFTLRISRVEAEDVGVYYCMQSLEYPWTFGGGTKLEIK
notes: Mouse mAb from hybridoma; also called mouse anti-LAG-3 mAb BG29
- EC50 (read off the curve) [2]: ~0.2 µg/mL

B6: BG33 (antibody, V domains shown)
VH: QIQLQQSGPEVVKPGASVKISCKASGYTFSDYHINWVKQKPGQGLEWIGWIYPGRGNPEYNEKFKGKATLTVDRSANTAYMQLSSLTSEDSSVYFCEIYYGNYLDYWGQGTTLTVSS
VL: DIVMTQAAPSVPVTPGESVSISCRSSKSLLHSDGKTYLYWFLQRPGQSPQRLIYYMSNLASGVPDRFSGRGSGTDFTLRISRVEAEDVGVYYCMQSLEYPWTFGGGTKLEIK
notes: Mouse mAb from hybridoma; also called mouse anti-LAG-3 mAb BG33
- EC50 (read off the curve) [2]: ~0.4 µg/mL

Results, then the binder that gave them:

- binding result (B5/IgG4 [1]): no binding (tested: 600-fold hLAG3-mFc)
B1: 1-11 (peptide)
peptide: GPPAAAPGHPL
notes: also called peptide 1-11

- binding result [5]: binds
- binding result [6]: no binding (tested: 600-fold hLAG3-mFc)
B7: 4-14 (peptide)
peptide: AAAPGHPLAPG
notes: also called peptide 4-14

- binding result [4]: no binding (tested: 200-fold hLAG3-mFc)
B8: 7-14 (peptide)
peptide: PGHPLAPG
notes: also called peptide 7-14

- binding result [5]: binds
- binding result [6]: no binding (tested: 600-fold hLAG3-mFc)
B9: 5-14 (peptide)
peptide: AAPGHPLAPG
notes: also called peptide 5-14

- binding result [4]: no binding (tested: 200-fold hLAG3-mFc)
B10: 6-13 (peptide)
peptide: APGHPLAP
notes: also called peptide 6-13

- binding result [6]: no binding (tested: 600-fold hLAG3-mFc)
- binding result [4]: no binding (tested: 200-fold hLAG3-mFc)
B11: 6-14 (peptide)
peptide: APGHPLAPG
notes: also called peptide 6-14

- binding result [2]: binds
- binding result (human LAG-3(ECD)-mFc): binds
B12: B12 (antibody, V domains shown)
VH: EVKLLESGGSLVQPGGSLKLSCAASGFDFSRYWMSWVRQAPGKGLEWIGEINPDSSTINYTPSLRDEFIISRDNAKNTLFLQMSKVISEDTALYYCARITSGYYFDYWGQGTTLTVSS
VL: DVVMTQTPLSLPVSLGDQASISCRSSQTIVYSNGNTYLYWYLQKPGQSPKLLIYRVSNRFPGVPDRFSGSGSGTDFTLKISGVEAEDMGVYYCFQGTHVPFTFGSGTKLEMK
notes: Mouse mAb from hybridoma; also called mouse anti-LAG-3 mAb B12
